Test results from PMC6796912.

Columns and labels:
[1] = molecular target: Saccharomyces cerevisiae Tel1 (TEL1-FLAG), endogenously purified (S. cerevisiae) (UniProt P38110); test: cryo-EM structure; Tel1-FLAG purified from S. cerevisiae, 20–50 μg/mL in 20 mM HEPES pH 8.0, 40 mM KOAc, 5 mM MgCl2, 0.1% trehalose, 2 mM DTT, 0.01% NP-40; symmetric dimer (C2, 4.1 Å) and asymmetric dimer (4.3 Å) classes
[2] = molecular target: GST-Xrs2 (full-length S. cerevisiae Xrs2) (S. cerevisiae) (UniProt P33301); test: pull-down; glutathione sepharose saturated with full-length GST-Xrs2 added to lysates of yeast expressing wild-type or mutant Tel1; 2 h at 4 °C, washed 3 times with lysis buffer; immunoblot with anti-PAP antibody
Chain of GST-Xrs2 (full-length S. cerevisiae Xrs2) (S. cerevisiae) (P33301 whole entry): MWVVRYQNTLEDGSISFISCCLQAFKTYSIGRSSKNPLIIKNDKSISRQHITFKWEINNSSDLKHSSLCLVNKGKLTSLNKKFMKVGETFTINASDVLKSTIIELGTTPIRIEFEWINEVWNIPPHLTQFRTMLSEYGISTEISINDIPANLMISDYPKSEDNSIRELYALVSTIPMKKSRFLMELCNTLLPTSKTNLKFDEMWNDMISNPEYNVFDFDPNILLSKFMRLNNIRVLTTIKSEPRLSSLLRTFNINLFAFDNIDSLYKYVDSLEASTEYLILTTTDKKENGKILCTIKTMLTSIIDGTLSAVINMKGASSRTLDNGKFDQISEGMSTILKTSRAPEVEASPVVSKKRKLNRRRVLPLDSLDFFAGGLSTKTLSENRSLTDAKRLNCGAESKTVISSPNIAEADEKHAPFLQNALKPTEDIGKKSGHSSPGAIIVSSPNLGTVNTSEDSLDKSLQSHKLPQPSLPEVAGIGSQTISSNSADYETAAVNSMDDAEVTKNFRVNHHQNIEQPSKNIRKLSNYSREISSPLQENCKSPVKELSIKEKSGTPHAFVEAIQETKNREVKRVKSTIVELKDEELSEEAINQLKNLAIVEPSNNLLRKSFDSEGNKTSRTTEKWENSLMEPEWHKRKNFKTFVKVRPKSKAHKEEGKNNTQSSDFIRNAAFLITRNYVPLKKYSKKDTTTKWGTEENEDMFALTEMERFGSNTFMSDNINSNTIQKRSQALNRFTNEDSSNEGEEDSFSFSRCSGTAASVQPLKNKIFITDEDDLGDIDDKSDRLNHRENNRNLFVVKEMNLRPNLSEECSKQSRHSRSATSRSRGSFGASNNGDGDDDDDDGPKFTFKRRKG

Row | Substance | stoichiometry N [1] | decrease of Xrs2 binding against wild-type Tel1 [2]
1 | Saccharomyces cerevisiae Tel1 (TEL1-FLAG), endogenously purified, P38110 1-2787 | 2 | 
2 | Tel1 K2751E (TAP-tagged), P38110 1-2787 |  | 100%
